Positions count from the first letter of the chain named. In names and notes the source's numbering stands.
B1: AsHPPDm-F415A: Avena sativa HPPD mutant F415A, SEQ ID NO: 424 (protein)
chain: MPPTPATATGAAAAAVTPEHAARSFPRVVRVNPRSDRFPVLSFHHVELWCADAASAAGRFSFALGAPLAARSDLSTGNSAHASLLLRSGALAFLFTAPYAPPPQEAATAAATASIPSFSADAARTFAAAHGLAVRSVGVRVADAAEAFRVSVAGGARPAFAPADLGHGFGLAEVELYGDVVLRFVSYPDETDLPFLPGFERVSSPGAVDYGLTRFDHVVGNVPEMAPVIDYMKGFLGFHEFAEFTAEDVGTTESGLNSVVLANNSEAVLLPLNEPVHGTKRRSQIQTYLEYHGGPGVQHIALASNDVLRTLREMRARTPMGGFEFMAPPQAKYYEGVRRIAGDVLSEEQIKECQELGVLVDRDDQGVLLQIFTKPVGDRPTFFLEMIQRIGCMEKDEVGQEYQKGGCGGFGKGNASELFKSIEDYEKSLEVKQSVVAQKS
modifications: AsHPPDm-F415A Amino Acid Sequence
B2: StHPPD-02: native Solanum tuberosum HPPD, SEQ ID NO: 123 (protein, listed as Solanum tuberosum)
chain: MGKQAATATATATATADDQQLPADIEDKYKLVGFNNFVRTNPRSDLFNVKRFHHIEFWCGDATNTARRFSWGLGLPIAAKSDLSTGNSVHASYLLRSSSSQLQFLFTAPYSPAISTPSSSSIPTFSVSSHRSFTETHGLGVRAIALEVENSRLAFSTCVSHGAKPVSEPVILNDEVVISEVHLYGDVVLRFVSFLKDSNRFVFLPGFELVEGAQLDYGIRRLDHAVGNVPQLGPVVEYIKSFTGFHEFAEFTAEDVGTAESGLNSVVLANNDETVLFPLNEPVYGTKRKSQIQTYLEHNEGAGVQHLALVTEDIFRTLREMRKRSGIGGFEFMPSPPPTYYKNLKSRAGDILSDEQIKECEELGILVDRDDQGTLLQIFTKPVGDRPTIFLEIIQRIGCMLQNAEGELYQKGGCGGFGKGNFSELFKSIEEYEKTLEAKQNTQVAIA
modifications: StHPPD Amino Acid Sequence
B3: StHPPDm-F372A-02: Solanum tuberosum HPPD mutant F372A, SEQ ID NO: 126 (protein)
chain: B2 chain with F379A
modifications: StHPPDm-F372A Amino Acid Sequence
B4: CsHPPD-02: native Cucumis sativus HPPD, SEQ ID NO: 117 (protein, listed as Cucumis sativus)
chain: MGKEADFPRAPSEATDGGATASQSEFELQGFDNFIRTNPKSDRFKVKRFHHIEFWCTDATNVARRFSWGLGMQIVAKSDLSTGNMTHASYLLRSGHLCFLFTAPYSPSIAAAQNLTPASTASIPSFDHSVCRSFSGTHGFGARAIALEVEDAEIAFRTSVAHGAKPSCPPIVLENRAVLSEVHLYGDVVLRYISYKNPVSGDNGENKPDEWFLPKFEAMEETASFPLDFGIRRLDHAVGNVPELGPAVSYLKGFTGFHEFAEFTAEDVGTSESGLNSMVLANNEEMVLLPINEPVFGTKRKSQIQTYLEHNEGAGVQHLALMSEDIFRTLREMRKRSSVGGFEFMPSPPPTYYKNLKSRAGDVLTDEQIKECEELGILVDKDDQGTLLQIFTKPVGDRPTIFIEIIQRLGCMMKDEEGKAFQKGGCGGFGKGNFSELFKSIEEYEKTLEAKRVSE
modifications: CsHPPD Amino Acid Sequence
B5: CsHPPDm-F372A-02: Cucumis sativus HPPD mutant F372A, SEQ ID NO: 120 (protein)
chain: B4 chain with F391A
modifications: CsHPPDm-F372A Amino Acid Sequence
B6: S1HPPD-02: native Solanum lycopersicum HPPD, SEQ ID NO: 129 (protein)
chain: MGKQAAAAADDQQLPGDIEDKFKLVGFNHFVRTNPRSDFFTVKRFHHIEFWCGDATNTARRFSWGLGLPIAAISDLSTGNSVHASYLLRSSSSSQLQFLFTAPYSSAISTSSSASIPTFSVSSHRSFTATHGLGVRAIALEVENSRLAFSTCVAHGAKPVSEPVILNDEVVIAEVHLYGDVVLRFVSFLKDSNCFVFLPGFESVEGAQLDYGIRRLDHAVGNVPELGPVVEYIKSFTGFHEFAEFTAEDVGTAESGLNSVVLANNDETVLFPLNEPVYGTKRKSQIQTYLEHNEGAGVQHLALVTEDIFRTLREMRKRSGIGGFEFMPSPPPTYYKNLKTRAGDILSDEQIQECEELGILVDRDDQGTLLQIFTKPVGDRPTIFLEIIQRIGCMLKNEEGELYQKGGCGGFGKGNFSELFKSIEEYEKTLEAKQNTQVAIA
modifications: SlHPPD Amino Acid Sequence (Solanum lycopersicum)
B7: NtHPPDm-F372A-02: Nicotiana tabacum HPPD mutant F372A, SEQ ID NO: 114 (protein)
chain: MGKLETVTTTSAAAADDSSELTTNFKLVGFKNFIRTNPRSDFFSVKSFHHIEFWCGDATNTARRFSWSLGMPIAAKSDLSTGNSVHASYLLRPVSGSLQFLFTAPYSPSISTPSSAAIPSFSTSTHRSFTTTHGLGVRAVALEVENAYTAFSASVSRGAKPMFEPVTIDEQVAMAEVHLYGDVVLRFVSYLKDADNLVFLPGFEAMDETASYKELDYGIRRLDHAVGNVPELGPVVDYIKRFTGFHEFAEFTAEDVGTAESGLNSMVLANNDETVLLPLNEPVYGTKRKSQIQTYLEHNEGAGVQHLALVTEDIFKTLTEMRKRSGVGGFEFMPSPPPTYYKNLKNRAGDVLSDEQILACEELGILVDRDDQGTLLQIATKPVGDRPTIFIEIIQRIGCMLKDGKGQVYQKGGCGGFGKGNFSELFRSIEEYEKTLEAKQANQVAAA
modifications: NtHPPDm-F372A Amino Acid Sequence

Tested on: Arabidopsis thaliana T1 plants
Experiment: Topramezone tolerance of transgenic Arabidopsis thaliana T1 plants (pesticide damage grade by bleached leaf area, score, resistance evaluation)
Format: in vivo
Settings: for Grade 0 / Grade 1 / Grade 2 / Grade 3 / score / Resistance Grade: non-372 position mutants; for Grade 0 / Grade 1 / Grade 2 / Grade 3: number of plants (of 20) in this grade; for score / Scores: score for pesticide damage 0-100; for Classification and statistics of pesticide damage grade Grade 0 / Classification and statistics of pesticide damage grade Grade 1 / Classification and statistics of pesticide damage grade Grade 2 / Classification and statistics of pesticide damage grade Grade 3 / Scores / Resistance evaluation: HPPDs from different species, 7 DAT; for Classification and statistics of pesticide damage grade Grade 0 / Classification and statistics of pesticide damage grade Grade 1 / Classification and statistics of pesticide damage grade Grade 2 / Classification and statistics of pesticide damage grade Grade 3: number of plants (of 16) in this grade
Outline: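 Eighteen days after sowing, wild-type and HPPD-transgenic T1 Arabidopsis receive a topramezone spray at 1×, 2× or 4× field rate (25–100 g ai/ha) or water. Seven days later each plant is graded by its proportion of bleached leaf area.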

Molecule	Classification and statistics of pesticide damage grade Grade 0 (topramezone 25 g ai/ha (1x))	Classification and statistics of pesticide damage grade Grade 1 (topramezone 25 g ai/ha (1x))	Classification and statistics of pesticide damage grade Grade 2 (topramezone 25 g ai/ha (1x))	Classification and statistics of pesticide damage grade Grade 3 (topramezone 25 g ai/ha (1x))	Classification and statistics of pesticide damage grade Grade 0 (topramezone 100 g ai/ha (4x))	Classification and statistics of pesticide damage grade Grade 1 (topramezone 100 g ai/ha (4x))	Classification and statistics of pesticide damage grade Grade 2 (topramezone 100 g ai/ha (4x))	Classification and statistics of pesticide damage grade Grade 3 (topramezone 100 g ai/ha (4x))	Scores (topramezone 25 g ai/ha (1x))	Scores (topramezone 100 g ai/ha (4x))	Resistance evaluation (topramezone 25 g ai/ha (1x))	Resistance evaluation (topramezone 100 g ai/ha (4x))	other results
B1	–	–	–	–	–	–	–	–	–	–	–	–	tolerance to topramezone, in words (Arabidopsis thaliana T1 plants sprayed with topramezone): no significant difference; Grade 0 (topramezone 25 g ai/ha (1x)): 0; Grade 1 (topramezone 25 g ai/ha (1x)): 6; Grade 2 (topramezone 25 g ai/ha (1x)): 12; Grade 3 (topramezone 25 g ai/ha (1x)): 2; Grade 0 (topramezone 100 g ai/ha (4x)): 0; Grade 1 (topramezone 100 g ai/ha (4x)): 0; Grade 2 (topramezone 100 g ai/ha (4x)): 0; Grade 3 (topramezone 100 g ai/ha (4x)): 20; score (topramezone 25 g ai/ha (1x)): 60; score (topramezone 100 g ai/ha (4x)): 100; Resistance Grade (topramezone 25 g ai/ha (1x)): poorly resistant (poorly resistant plants (scores 34-67)); Resistance Grade (topramezone 100 g ai/ha (4x)): non-resistant (non-resistant plants (scores 68-100))
B2	0	0	0	16	0	0	0	16	100	100	non-resistant (non-resistant plants (scores 68-100))	non-resistant (non-resistant plants (scores 68-100))	–
B3	4	12	0	0	0	1	4	11	25	88	moderately resistant (moderately resistant plants (scores 16-33))	non-resistant (non-resistant plants (scores 68-100))	–
B4	0	0	0	16	0	0	0	16	100	100	non-resistant (non-resistant plants (scores 68-100))	non-resistant (non-resistant plants (scores 68-100))	–
B5	0	0	16	0	0	0	0	16	67	100	poorly resistant (poorly resistant plants (scores 34-67))	non-resistant (non-resistant plants (scores 68-100))	–
B6	0	0	0	16	0	0	0	16	100	100	non-resistant (non-resistant plants (scores 68-100))	non-resistant (non-resistant plants (scores 68-100))	–
B7	0	6	10	0	0	0	0	16	54	100	poorly resistant (poorly resistant plants (scores 34-67))	non-resistant (non-resistant plants (scores 68-100))	–
